Article PMC9482650, “Quantitative fragmentomics allow affinity mapping of interactomes” (Nature Communications, 2022)
Residue numbers refer to the chain shown, from its start.

Assays:
Test in all cases: holdup assay
Set-up in all cases: key: below the threshold = too weak to quantify, mostly under pKd 3.1 to 4
[1] = target: PDZRN4_1, Q6ZMN7
[2] = target: NOS1, P29475
[3] = target: T1, MPP7, Q5T2T1
T1 sequence (Q5T2T1 134-230, limits assumed, looked up): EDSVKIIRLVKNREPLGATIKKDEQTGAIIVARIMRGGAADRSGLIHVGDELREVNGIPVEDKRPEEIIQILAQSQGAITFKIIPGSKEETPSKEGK

[4] = target: T2, GRIP1_2, Q9Y3R0
T2 sequence (Q9Y3R0 145-248, limits assumed, looked up): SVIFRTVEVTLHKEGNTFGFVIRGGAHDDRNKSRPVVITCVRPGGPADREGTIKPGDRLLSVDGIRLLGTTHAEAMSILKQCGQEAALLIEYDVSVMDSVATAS

[5] = target: T3, LIN7A, O14910
T3 sequence (O14910 103-200, limits assumed, looked up): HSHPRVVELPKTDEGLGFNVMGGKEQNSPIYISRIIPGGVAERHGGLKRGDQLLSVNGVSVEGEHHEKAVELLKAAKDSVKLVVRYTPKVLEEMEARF

[6] = target: T4, SNTG1, Q9NSN8
T4 sequence (Q9NSN8 52-150, limits assumed, looked up): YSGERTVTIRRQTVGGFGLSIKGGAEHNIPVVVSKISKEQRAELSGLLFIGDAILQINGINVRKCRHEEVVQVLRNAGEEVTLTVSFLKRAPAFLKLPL

[7] = target: GIPC2, Q8TF65
[8] = target: PICK1, Q9NRD5
[9] = target: GRIP2_4, Q9C0E4
[10] = target: T5, NHERF3_3, Q5T2W1
T5 sequence (Q5T2W1 238-333, limits assumed, looked up): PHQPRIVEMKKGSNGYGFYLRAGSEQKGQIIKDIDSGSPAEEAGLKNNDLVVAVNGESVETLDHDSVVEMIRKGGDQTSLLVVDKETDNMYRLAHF

[11] = target: DLG4_2, P78352
[12] = target: Inadl_8, Q8NI35
[13] = target: MAGI1_1, Q96QZ7
[14] = target: T6, ARHGEF11, O15085
T6 sequence (O15085 42-136, limits assumed, looked up): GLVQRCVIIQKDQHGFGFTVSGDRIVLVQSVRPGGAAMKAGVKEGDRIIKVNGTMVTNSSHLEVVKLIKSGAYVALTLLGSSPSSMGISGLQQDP

[15] = target: PARD3_3, Q8TEW0
[16] = target: T7, SNTA1, Q13424
T7 sequence (Q13424 82-180, limits assumed, looked up): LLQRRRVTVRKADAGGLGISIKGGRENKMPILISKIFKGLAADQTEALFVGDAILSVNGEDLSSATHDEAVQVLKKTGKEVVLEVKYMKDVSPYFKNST

[17] = target: T8, PTPN13_1, Q12923
T8 sequence (Q12923 1088-1188, limits assumed, looked up): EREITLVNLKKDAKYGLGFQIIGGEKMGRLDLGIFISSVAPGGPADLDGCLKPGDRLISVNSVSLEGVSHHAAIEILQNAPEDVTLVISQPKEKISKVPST

[18] = target: DLG4_1, P78352
[19] = target: T9, APBA2_2, Q99767
T9 sequence (Q99767 654-744, limits assumed, looked up): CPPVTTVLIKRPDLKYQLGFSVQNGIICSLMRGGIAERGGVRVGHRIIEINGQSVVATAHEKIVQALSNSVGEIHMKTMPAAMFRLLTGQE

[20] = target: Inadl_4, Q8NI35
[21] = target: IL16_4, Q14005
[22] = target: T10, SYNJ2BP, P57105
T10 sequence (P57105 8-110, limits assumed, looked up): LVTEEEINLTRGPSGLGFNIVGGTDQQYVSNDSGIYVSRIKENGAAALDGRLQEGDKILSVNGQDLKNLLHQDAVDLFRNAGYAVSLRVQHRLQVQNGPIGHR

[23] = target: SNX27, Q96L92
[24] = target: T11, APBA1_2, Q02410
T11 sequence (Q02410 742-832, limits assumed, looked up): T9 sequence (Q99767 654-744, limits assumed, looked up) with K10R, K15R, A59P, Q65H, A66I, S70A, F84Y, G89A

[25] = target: T12, LNX2_2, Q8N448
T12 sequence (Q8N448 334-432, limits assumed, looked up): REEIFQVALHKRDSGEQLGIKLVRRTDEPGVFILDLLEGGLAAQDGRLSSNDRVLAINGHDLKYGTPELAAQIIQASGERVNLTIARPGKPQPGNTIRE

[26] = target: Inadl_2, Q8NI35
[27] = plain residues with an end cap or a label only (N-terminal biotin on a linker: ado-ado)
[28] = plain residues with an end cap or a label only (N-terminal biotin on a linker: ttds)
[29] = plain residues with an end cap or a label only (N-terminal biotin on a linker: ahx)

Sequence of DLG4_1, P78352 (P78352 62-152): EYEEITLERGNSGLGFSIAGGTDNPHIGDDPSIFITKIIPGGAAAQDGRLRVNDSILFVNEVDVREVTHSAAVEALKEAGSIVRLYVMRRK
Sequence of MAGI1_1, Q96QZ7 (Q96QZ7 1-106): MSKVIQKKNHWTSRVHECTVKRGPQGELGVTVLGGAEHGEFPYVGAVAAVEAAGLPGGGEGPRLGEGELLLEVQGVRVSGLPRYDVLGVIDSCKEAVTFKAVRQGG
Sequence of PICK1, Q9NRD5 (Q9NRD5 17-115): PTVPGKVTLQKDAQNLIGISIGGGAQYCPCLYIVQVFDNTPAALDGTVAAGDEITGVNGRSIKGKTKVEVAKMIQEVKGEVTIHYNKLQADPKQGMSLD
Sequence of IL16_4, Q14005 (Q14005 1229-1329): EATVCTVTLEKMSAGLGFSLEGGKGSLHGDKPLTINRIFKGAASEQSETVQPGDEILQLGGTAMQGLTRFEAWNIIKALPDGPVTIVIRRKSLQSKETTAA
Sequence of Inadl_4, Q8NI35 (Q8NI35 547-651): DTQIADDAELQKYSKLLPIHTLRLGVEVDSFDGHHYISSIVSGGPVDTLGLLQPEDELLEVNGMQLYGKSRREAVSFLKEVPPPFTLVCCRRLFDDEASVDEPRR
Sequence of Inadl_2, Q8NI35 (Q8NI35 238-335): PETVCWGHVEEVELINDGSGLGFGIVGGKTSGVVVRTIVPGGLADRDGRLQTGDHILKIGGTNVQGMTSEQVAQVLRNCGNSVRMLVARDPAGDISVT
Sequence of PDZRN4_1, Q6ZMN7 (Q6ZMN7 213-318): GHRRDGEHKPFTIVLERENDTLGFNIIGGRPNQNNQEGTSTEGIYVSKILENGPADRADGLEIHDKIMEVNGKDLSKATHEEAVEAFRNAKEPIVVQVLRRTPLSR
Sequence of NOS1, P29475 (P29475 9-101): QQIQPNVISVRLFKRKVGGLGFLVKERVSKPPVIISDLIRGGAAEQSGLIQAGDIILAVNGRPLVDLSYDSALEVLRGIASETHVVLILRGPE
Sequence of PARD3_3, Q8TEW0 (Q8TEW0 582-685): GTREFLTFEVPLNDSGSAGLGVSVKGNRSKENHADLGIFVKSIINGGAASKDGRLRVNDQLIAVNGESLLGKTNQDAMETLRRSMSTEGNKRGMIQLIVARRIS
Sequence of Inadl_8, Q8NI35 (Q8NI35 1425-1530): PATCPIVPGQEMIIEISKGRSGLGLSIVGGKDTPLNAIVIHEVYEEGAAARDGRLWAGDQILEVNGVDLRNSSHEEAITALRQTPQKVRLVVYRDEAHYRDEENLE
Sequence of DLG4_2, P78352 (P78352 155-259): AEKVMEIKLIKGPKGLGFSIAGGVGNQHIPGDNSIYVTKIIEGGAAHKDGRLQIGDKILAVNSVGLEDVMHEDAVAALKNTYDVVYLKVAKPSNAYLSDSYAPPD
Sequence of GIPC2, Q8TF65 (Q8TF65 112-203): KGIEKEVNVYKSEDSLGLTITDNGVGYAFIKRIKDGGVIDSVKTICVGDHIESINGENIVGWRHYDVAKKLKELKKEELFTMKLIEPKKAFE
Sequence of GRIP2_4, Q9C0E4 (Q9C0E4 446-548): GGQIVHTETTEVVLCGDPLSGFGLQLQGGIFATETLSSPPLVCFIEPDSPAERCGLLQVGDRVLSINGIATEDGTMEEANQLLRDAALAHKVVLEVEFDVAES

## LHLHGTGIQV [EPHA7, Q15375]
[1]; [27]
  pKd: 3.57
[2]; [27]
  pKd: 4.24
[3]; [27]
  pKd: below the threshold
[4]; [27]
  pKd: below the threshold
[5]; [27]
  pKd: below the threshold
[6]; [27]
  pKd: 3.57
[7]; [27]
  pKd: below the threshold
[8]; [27]
  pKd: 3.56
[9]; [27]
  pKd: below the threshold
[10]; [27]
  pKd: below the threshold
[11]; [27]
  pKd: 3.75
[12]; [27]
  pKd: below the threshold
[13]; [27]
  pKd: 3.59
[14]; [27]
  pKd: 4.51
[15]; [27]
  pKd: 3.64
[16]; [27]
  pKd: below the threshold
[17]; [27]
  pKd: below the threshold
[18]; [27]
  pKd: 3.73
[19]; [27]
  pKd: below the threshold
[20]; [27]
  pKd: below the threshold
[21]; [27]
  pKd: below the threshold
[22]; [27]
  pKd: 3.7
[23]; [27]
  pKd: 3.53
[24]; [27]
  pKd: 4.22
[25]; [27]
  pKd: 5.03
[26]; [27]
  pKd: below the threshold

## HRTCYLVTQL [ASIC3, Q9UHC3]
[1]; [28]
  pKd: 4.24
[2]; [28]
  pKd: 3.75
[3]; [28]
  pKd: 3.25
[4]; [28]
  pKd: below the threshold
[5]; [28]
  pKd: below the threshold
[6]; [28]
  pKd: 3.72
[7]; [28]
  pKd: below the threshold
[8]; [28]
  pKd: 3.63
[9]; [28]
  pKd: below the threshold
[10]; [28]
  pKd: 3.52
[11]; [28]
  pKd: 3.97
[12]; [28]
  pKd: 3.8
[13]; [28]
  pKd: 3.5
[14]; [28]
  pKd: 4.83
[15]; [28]
  pKd: 3.76
[16]; [28]
  pKd: 3.88
[17]; [28]
  pKd: 3.36
[18]; [28]
  pKd: 3.78
[19]; [28]
  pKd: below the threshold
[20]; [28]
  pKd: below the threshold
[21]; [28]
  pKd: 3.21
[22]; [28]
  pKd: 4.72
[23]; [28]
  pKd: 5.11
[24]; [28]
  pKd: 3.78
[25]; [28]
  pKd: below the threshold
[26]; [28]
  pKd: below the threshold

## QGRWDHETIV [TMEM215, Q68D42]
[1]; [29]
  pKd: 3.67
[2]; [29]
  pKd: 4.04
[3]; [29]
  pKd: 3.63
[4]; [29]
  pKd: below the threshold
[5]; [29]
  pKd: below the threshold
[6]; [29]
  pKd: 4.7
[7]; [29]
  pKd: 3.81
[8]; [29]
  pKd: 4.06
[9]; [29]
  pKd: below the threshold
[10]; [29]
  pKd: below the threshold
[11]; [29]
  pKd: 4.66
[12]; [29]
  pKd: 3.65
[13]; [29]
  pKd: below the threshold
[14]; [29]
  pKd: 4.04
[15]; [29]
  pKd: 4.47
[16]; [29]
  pKd: 5.28
[17]; [29]
  pKd: below the threshold
[18]; [29]
  pKd: 4.68
[19]; [29]
  pKd: below the threshold
[20]; [29]
  pKd: below the threshold
[21]; [29]
  pKd: below the threshold
[22]; [29]
  pKd: 4.14
[23]; [29]
  pKd: 5.38
[24]; [29]
  pKd: 3.9
[25]; [29]
  pKd: 5.07
[26]; [29]
  pKd: 4.22
